The target in data set [1] is T1, pvLDH (Plasmodium vivax lactate dehydrogenase) (Plasmodium vivax, UniProt Q4PRK9 Q4PRK9:1-316).
The target in data set [2] is pfLDH (Plasmodium falciparum lactate dehydrogenase) (Plasmodium falciparum, UniProt Q27743 Q27743:1-316). The data set is described as follows: fluorescence bead assay, same buffer; binding also seen by EMSA. The settings on record: chain copies: 4 inferred; label: FAM (fluorescence assay); Loop 1, G-C rich stem, Loop 2 (Mfold). On the procedure:
A mixture of 16 μg of pvLDH and 10 μL of magnetic beads was incubated for one hour in 100 μL of binding buffer (20 mM Tris, 50 mM NaCl, 5 mM KCl, 5 mM MgCl2, pH 8.0), followed by washing twice with the binding buffer to remove unbound pvLDH. Then, the beads were incubated for one hour with various concentrations of FAM-labeled aptamers. The aptamers which were not reacted with pvLDH were removed by washing.
Only the FAM-labeled ssDNA aptamer which was bound to pvLDH immobilized to the magnetic beads was separated using a magnet and quantitatively analyzed by fluorescence assay (1420 Victor multilabel counter, PerkinElmer, USA). […] Kd values were also determined for pfLDH in the same manner.
Background: In EMSA bound probe runs differently from free probe, usually more slowly.

The target in data set [3] is T1, pvLDH (Plasmodium vivax lactate …). Briefly: EMSA. To be noted: tags: (His)6-tag, pET28a, E. coli BL21(DE3); chain copies: 4 inferred.

For orientation: Kd means the concentration at which binding is half-saturated. Consider GAACTCATTGGCTGGAGGCGGCAGTACCGCTTGAGTTC (ssDNA) [Aptamer #2], for which the values for the Kd in data set [1] and in data set [2] were 31.7 nM and 49.6 nM, respectively.
On to GTTCGATTGGATTGTGCCGGAAGTGCTGGCTCGAAC (ssDNA) [Aptamer #1], for which the Kd is 16.8 nM in data set [1] and 38.7 nM in data set [2].
Turning to GTTCGACCAAATTGTGCCGGAAGTGCTGGCTCGAAC (ssDNA) [Aptamer #1 loop 1 mutant], the binding result in data set [3] was “no binding”.
Still for that read-out and setting: with GTTCGATTGGATTGTGCCGGAGACGCTGGCTCGAAC (ssDNA) [Aptamer #1 loop 2 mutant] the entry was “no binding”.
